Assay results as given in patent US7291492.

What was measured:
[1] = biological target: [3H]acetyl-labelled peptide corresponding to the N-Terminus of Histone H3, P68431
[2] = biological target: [3H]acetyl-labelled peptide corresponding to the N-Terminus of histone H4, P62805

B1: N-Terminus flag tagged HDAC9 (protein)
chain: MHSMISSVDVKSEVPVGLEPISPLDLRTDLRMMMPVVDPVVREKQLQQELLLIQQQQQIQKQLLIAEFQKQHENLTRQHQAQLQEHIKLQQELLAIKQQQELLEKEQKLEQQRQEQEVERHRREQQLPPLRGKDRGRERAVASTEVKQKLQEFLLSKSATKDTPTNGKNHSVSRHPKLWYTAAHHTSLDQSSPPLSGTSPSYKYTLPGAQDAKDDFPLRKTASEPNLKVRSRLKQKVAERRSSPLLRRKDGNVVTSFKKRMFEVTESSVSSSSPGSGPSSPNNGPTGSVTENETSVLPPTPHAEQMVSQQRILIHEDSMNLLSLYTSPSLPNITLGLPAVPSQLNASNSLKEKQKCETQTLRQGVPLPGQYGGSIPASSSHPHVTLEGKPPNSSHQALLQHLLLKEQMRQQKLLVAGGVPLHPQSPLATKERISPGIRGTHKLPRHRPLNRTQSAPLPQSTLAQLVIQQQHQQFLEKQKQYQQQIHMNKLLSKSIEQLKQPGSHLEEAEEELQGDQAMQEDRAPSSGNSTRSDSSACVDDTLGQVGAVKVKEEPVDSDEDAQIQEMESGEQAAFMQQPFLEPTHTRALSVRQAPLAAVGMDGLEKHRLVSRTHSSPAASVLPHPAMDRPLQPGSATGIAYDPLMLKHQCVCGNSTTHPEHAGRIQSIWSRLQETGLLNKCERIQGRKASLEEIQLVHSEHHSLLYGTNPLDGQKLDPRILLGDDSQKFFSSLPCGGLGVDSDTIWNELRSSGAARMAVGCVIELASKVASGELKNGFAVVRPPGHHAEESTAMGFCFFNSVAITAKYLRDQLNISKILIVDLDVHHGNGTQQAFYADPSILYISLHRYDEGNFFPGSGAPNEVGTGLGEGYNINIAWTGGLDPPMGDVEYLEAFRTIVKPVAKEFDPDMVLVSAGFDALEGHTPPLGGYKVTAKCFGHLTKQLMTLADGRVVLALEGGHDLTAICDASEACVNALLGNELEPLAEDILHQSPNMNAVISLQKIIEIQSKYWKSVRMVAVPRGCALAGAQLQEETETVSALASLTVDVEQPFAQEDSRTAGEPMEEEPAL
[1]
  histone deacetylase activity (release of [3H]acetate from the peptide): Higher activities of HDAC9 have been detected towards peptide substrates derived from histone H3 than from histone H4
[2]
  histone deacetylase activity (release of [3H]acetate from the peptide), relative to HDAC1: HDAC9 contains about 25% activity of HDAC1
  histone deacetylase activity (release of [3H]acetate from the peptide), relative to HDACs 4 and 5: 50% activity of HDACs 4 and 5
